Test [1] concerns the target GFP10-RHOA of the triSFP-RHOA reporter cells (UniProt P61586). As to the kind of experiment: split reporter (BiFC, NanoBiT); intracellular competition in triSFP-RHOA cells (MRC5_GFP1-9 with doxycycline-induced GFP10-RHOA and GFP11-RBD); mCherry fusions transfected; rGFP fluorescence by flow cytometry in quartiles of mCherry expression.
In test [2] the target is GFP10-tagged constitutively active RHOA L63 mutant (UniProt P61586). As to the kind of experiment: split reporter (BiFC, NanoBiT); tripartite split-GFP: GFP10-GTPase mutant and GFP11-tagged partner co-transfected in MRC5 cells stably expressing GFP1-9; fixed 20 h after transfection; percent of reconstituted GFP (rGFP) positive cells by flow cytometry.
Test [3] shares this target. The test is described as above. The source holds these as a separate data set.
For test [4], the target named is GFP10-tagged constitutively active CDC42 L61 mutant (UniProt P60953). The test is described as above.
Test [5] deals with GFP10-tagged constitutively active RAC1 L61 mutant (UniProt P63000). The description is as above.

Like-named read-outs stand apart in the source and are kept apart here.

RHOTEKIN effector RHO Binding Domain (RBD) fused to a C-terminal GFP11 tag (domain or fragment), sequence (Q8C6B2 whole entry, the tested form may be a part): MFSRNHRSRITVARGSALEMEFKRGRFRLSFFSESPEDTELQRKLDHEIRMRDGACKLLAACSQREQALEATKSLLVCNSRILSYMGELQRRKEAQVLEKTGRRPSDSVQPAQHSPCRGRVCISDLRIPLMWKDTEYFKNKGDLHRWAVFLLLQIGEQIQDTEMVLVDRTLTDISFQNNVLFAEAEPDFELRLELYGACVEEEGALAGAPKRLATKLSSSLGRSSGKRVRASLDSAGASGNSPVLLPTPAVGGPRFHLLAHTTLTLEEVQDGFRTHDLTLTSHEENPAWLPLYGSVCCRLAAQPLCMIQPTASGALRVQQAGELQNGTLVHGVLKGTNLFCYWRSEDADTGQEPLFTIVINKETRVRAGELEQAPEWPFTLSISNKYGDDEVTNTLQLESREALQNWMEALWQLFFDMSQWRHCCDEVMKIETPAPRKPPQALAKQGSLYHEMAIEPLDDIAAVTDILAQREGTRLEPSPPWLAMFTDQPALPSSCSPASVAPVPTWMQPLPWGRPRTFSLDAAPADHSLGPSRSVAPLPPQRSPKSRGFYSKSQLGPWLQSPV
GFP11 tagged PAK-BD (domain or fragment), sequence (Q13153 2-545): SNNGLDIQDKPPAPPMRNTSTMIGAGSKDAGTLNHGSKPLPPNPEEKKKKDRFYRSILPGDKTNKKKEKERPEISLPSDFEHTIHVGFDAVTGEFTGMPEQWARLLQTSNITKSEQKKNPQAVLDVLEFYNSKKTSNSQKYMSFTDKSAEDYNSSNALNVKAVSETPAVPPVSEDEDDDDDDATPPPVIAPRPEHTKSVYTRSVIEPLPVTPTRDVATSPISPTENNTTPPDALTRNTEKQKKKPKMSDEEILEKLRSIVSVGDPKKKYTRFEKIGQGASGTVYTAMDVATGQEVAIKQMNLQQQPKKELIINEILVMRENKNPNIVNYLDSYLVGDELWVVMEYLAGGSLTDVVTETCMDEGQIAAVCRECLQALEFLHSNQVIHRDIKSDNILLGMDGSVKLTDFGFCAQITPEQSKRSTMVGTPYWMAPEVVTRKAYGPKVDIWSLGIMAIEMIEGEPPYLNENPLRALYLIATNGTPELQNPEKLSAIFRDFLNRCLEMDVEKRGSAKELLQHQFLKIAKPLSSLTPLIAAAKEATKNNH
GFP10-tagged constitutively active RHOA L63 mutant, sequence (P61586 other isoform, or with tags, fused parts or gaps mutant): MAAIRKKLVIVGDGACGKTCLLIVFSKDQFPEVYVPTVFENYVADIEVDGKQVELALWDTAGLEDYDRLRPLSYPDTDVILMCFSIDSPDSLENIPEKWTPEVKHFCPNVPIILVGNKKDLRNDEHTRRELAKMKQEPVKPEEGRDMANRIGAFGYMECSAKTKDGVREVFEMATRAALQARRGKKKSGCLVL
GFP10-tagged constitutively active CDC42 L61 mutant, sequence (P60953 other isoform, or with tags, fused parts or gaps mutant): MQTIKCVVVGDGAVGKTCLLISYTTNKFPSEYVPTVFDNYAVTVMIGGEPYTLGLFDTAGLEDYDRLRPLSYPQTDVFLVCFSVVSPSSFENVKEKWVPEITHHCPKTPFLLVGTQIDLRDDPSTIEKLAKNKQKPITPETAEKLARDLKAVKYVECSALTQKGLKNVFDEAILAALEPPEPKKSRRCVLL
GFP10-RHOA of the triSFP-RHOA reporter cells, sequence (P61586 whole entry, the tested form may be a part): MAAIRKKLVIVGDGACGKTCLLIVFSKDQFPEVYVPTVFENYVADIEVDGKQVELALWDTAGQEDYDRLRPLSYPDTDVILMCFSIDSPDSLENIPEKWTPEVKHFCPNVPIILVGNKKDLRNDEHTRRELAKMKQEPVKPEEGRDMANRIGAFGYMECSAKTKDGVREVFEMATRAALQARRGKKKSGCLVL

In test [1], RBD-mCherry (domain or fragment) yielded a percent decrease of rGFP fluorescence (competition with GFP11-RBD) of 20%.
On to “RHOTEKIN effector RHO Binding Domain (RBD) fused to a C-terminal GFP11 tag (domain or fragment)”, for which the percent rGFP positive cells in test [2] stood at 25%; in test [3], 28%.
For the substance “GFP11 tagged PAK-BD (domain or fragment)”, the figures for the percent rGFP positive cells in test [4] and in test [5] were 11.8% and 9.9%, respectively.
